21 sequences from the DeepSol protein solubility set can be followed below.

This series is described as follows: soluble on expression in E. coli; label from the status in PepcDB or PDB records.
In the case of “MIIKIGTDRFWVKASNIERWAEILKSLPKKIPCSSKKDIARDYLGYKVDESGRIVNADEVYGLFGAEKDKDSLTIVGCNFIKEIEGGYELTEGAIELVERFKHNEEWEKVLGSQLLKYSIRIRTIAYAMLNGGYLYFEKGYMENFAKAYITLNDKKFYVFSSKPDEMNINSLMKENQSKILGDFWRKELDIGDGEEIEFRGVNKDYPSLGSMSTYLKIPMLLFDYLGWIVESEDGRYVLDKHKIKEDAGIDVYESLVNEADVDDIEILHKLIKEYSDARGFFPIGIVGSILKKKIDSENSMAEEQWIDHYFVTGINKGKFIIKDHEQGQPRHGRGLLGKKDYQLIKLEIRD”, the “soluble on expression in E. coli” value was “not soluble”.

For “MIIQCQVKSVQPLATHTYQILLQPEHAVAYQAGQYLMVVMGEKDKRPFSLASSPCRSNGELELHIGAADHSAFAHQVVEKFQQAHLNQTWVEVDVPHGNAALQESERPLLLIAGGTGFSYVRSILDHCLSQGKTQPIYLYWGARDAAQLYALNELQELAKQHAHLQVVPVVEQAQDDWAGKVGNVLQAINNDFASLEAFDIYIAGRFEMAGAAREQFTQNKQARRDRMFADAYAFI”, the “soluble on expression in E. coli” value is “not soluble”.

For the sequence “MIIYKDIFSNDELLSDAYDAKLVDDVIYEADCAMVNVGGDNIDIGANPSAEGGDDDVEEGAEMVNNVVHSFRLQQTAFDKKSFLTYIKGYMKAVKAKLQETNPEEVPKFEKGAQTYVKKVIGSFKDWEFFTGESMDPDAMVVMLNYREDGTTPFVAIWKHGIVEEKI”, the “soluble on expression in E. coli” value is “soluble”.

Turning to “MIKIGVITMALLSFLNAGWFSLLFGSNPDPISIPIDLSQAGSVVEREVKIEETWAYDLFLEFAVLDRKEDGGLDGKKVRKFLGFNSYNPYDGKKLGFGDYEQAKRKLGDLIDETYDCDGTIAPIKLTIHQINKDNTKKLIVDNLYMTKGYSSGAYERDIAIISLDKGKYIFRIENIEAFQEMNARKVNFIIRIHKRDK”, the “soluble on expression in E. coli” value is “not soluble”.

As for “MIKKCLFPAAGYGTRFLPITKTIPKEMLPIVDKPLIQYAVEEAMEAGCEVMAIVTGRNKRSLEDYFDTSYEIEHQIQGTNKENALKSIRNIIEKCCFSYVRQKQMKGLGHAILTGEALIGNEPFAVILADDLCISHDHPSVLKQMTSLYQKYQCSIVAIEEVALEEVSKYGVIRGEWLEEGVYEIKDMVEKPNQEDAPSNLAVIGRYILTPDIFEILSETKPGKNNEIQITDALRTQAKRKRIIAYQFKGKRYDCGSVEGYIEASNAYYKKRLLEHHHHHH”, the “soluble on expression in E. coli” value is “soluble”.

Turning to “MIKKLPLFIIVCLLAISSQALAETELEIEGLEGPLLSNVEAYISGIPEEDYSVSLRFQARLQESITDALKALGYYQSTTTFVVEGDTSDRTLLVNIDAGQPVIIYVSDIVISGEAAADEDFINAVDNSGLNLGQVINHGRYESLKSTLQNLALRKGYFDGDFTTNRLEIAPGRHQAIVRIHYDSGKRYSFGETSIDGSQIEEKRVRSIIPFQAGDPYLASQVGELNQYLSNTEWFSSVYVEPDIDAVGKTYQLPMKVHLSPQVRNQLETSIGYATDVGARGKIRWKKPWLNPEGHSLDTALSISKPEQEATISYKIPLEQVLKDYYVVKYGLKNVDNNDTDSLESNLAFERHWVYDSGWHRTIYTRFLYEEFTQGVQDGTAWLVLPGISFSKSRSRGGTMPMWGDKKAFTIEATDQALTSDVKLLRLQAQGAIVRSIGENHRGVARADIGAIYTDDFYKLPPSIRFFAGGDNSIRGYGYEEVSPKDSEGYLTGGQYMATASLEYQYRVVGNWWVATFVDYGDAWLDTPDWKMGTGVGIRWASPVGPVRLDFAWGLDAEPGDEFKIHFTLGPEVLEHHHHHH”, the “soluble on expression in E. coli” value is given as “soluble”.

In the case of “MIKLVFRYSPTKTVDGFNELAFGLGDGLPWGRVKKDLQNFKARTEGTIMIMGAKTFQSLPTLLPGRSHIVVCDLARDYPVTKDGDLAHFYITWEQYITYISGGEIQVSSPNAPFETMLDQNSKVSVIGGPALLYAALPYADEVVVSRIVKRHRVNSTVQLDASFLDDISKREMVETHWYKIDEVTTLTESVYK”, the “soluble on expression in E. coli” value was “soluble”.

Regarding “MIKNILILSSNNTGHGHKSITESLLEQFSHYPDVNVHVIDGFTLAGNFGLRIGKLYGSVTRNAKELWKLVWELSLKKPSLLNDFTEVAIKDNFLKLICNIKPDLILSVHPNFNGSVLNILEDYNIKVPFVTLLADIVSITPLWADPRADYIICPSKESKFKCLEFGVSESKLIETGFPVRQKFLKHLEKNGENNTQNIKKYTGDRPLECLIMSGGEGSGNMSRIASILLKNFNCRVKIVTGRNRLLKRRLERTIGERFGDRVEIYGFTENIQDLMLSSDIAFTRGSPNVMMEAVACNVPLIITGNLPGQEEGNPAYMQKYNLGVVCKDVRKLRHTVNELLENNGEKLNRIKQSQKEFLNPNVAKEIVSFLLSIDKQEEPCFPEDLFSGDFPRFWELHKRISMSHNKKIILKRHKKIGTKQK”, the “soluble on expression in E. coli” value was “soluble”.

Turning to “MILKPIGVVKSPFKTQNDAPRQGRFSDAVSEIAIFDEYADGLHKIENLRHIIVLYWMDKASRDKLRVVPPGETEERGVFTTRSPSRPNPIGLCVVEILEVERNRLKVRWLDALDGSPVIDIKKYSPEIDCVNQLEGQQP”, the “soluble on expression in E. coli” value is “not soluble”.

For “MILNIRDHYLPREYWKYISLHRGPIYGYKLEAYIGADNCIHYKEIPKNPDDTLRENETIYI”, the “soluble on expression in E. coli” value is “not soluble”.

“MILNPQKLSVDFGNGITATEPIIPRRYTLTHSDITAKLFLNIGLTYAYNKMTTMRDEVLGEWVKKSQDYSYQVFLHVDGRLGPKTTAIRNKIFRRELPLALEAIRYGDKRFFNAHPYLDNAPITVFFISTNPNFNKIENWGTFSDYNIESYYRNLEHHHHHH”: the “soluble on expression in E. coli” value is “soluble”.

On to “MILRYATNLKLAKELYQASKPKLQEDKGMIELFEHTFGLQKELVKYVGIAEATTAALYSASFINKNISRLASLSTIGILSVAAYKHFEAGQGKKGAQHALDLLGLATLSLLDTFSCNKKLEHHHHHH”, for which the “soluble on expression in E. coli” value is given as “not soluble”.

Take “MILSSYNTIQSVFCCCCCCSVQKRQMRTQISLSTDEELPEKYTQHRRPWLSQLSNKKQSNTGRVQPSKRKPLPPLPPSEVAEEKIQVKALYDFLPREPCNLALRRAEEYLILEKYNPHWWKARDRLGNEGLIPSNYVTENKITNLEIYEWYHRNITRNQAEHLLRQESKEGAFIVRDSRHLGSYTISVFMGARRSTEAAIKHYQIKKNDSGQWYVAERHAFQSIPELIWYHQHNAAGLMTRLRYPVGLMGSCLPATAGFSYGKVCTHAEVK”: the “soluble on expression in E. coli” value was “soluble”.

With “MINAKVHVAVPTAFYADESLNISATLAHAQYLLDHQIESVMLCGSTGEQHSLDLDEKIALARAVDRAEWPQGAEIIFGVSAIRQSHAVRLAQVVAQCERIDAILVGFPPYIRPTQDQARRFVTAITQTAGKPAIIYNNPARTGFDASASTLAQLCMLPDVIGVKDPGGAPKLAEVSREIAPFRARYYAGGELDLHAKVAHGYTYLSSIVGNIAPEETVAWFNALRHGEEYESSSRLQELIDQLFAHHPIQFLKEKISTQEGINMGSCRLPLGPIAD”, the “soluble on expression in E. coli” value is recorded as “not soluble”.

As to “MINKTKRLMVPRTVKIPRKTYFWGPTPLPGRHKADHSVTLLTIIRDYLRLSDKEREATRILANGLVKVDGKVVKERKFGVGFMDVIEISGESYRVVYNNQGALVLVSESKDRANMKPLQVKNKVIAPGNKIQLGFHDGRVMVTEDRSISVGDVVIASLPDMKITEIIKMQPGNKAFITGGSHVGETGTISKIEIKESSSANLVHFDEGFTTVKDHVFVIGSPRFTFTMPSGEVYPLEHHHHHH”, the “soluble on expression in E. coli” value is reported as “not soluble”.

“MINLSNLSAVATSVARAALGESNTSKINHAFDVASHIAGQTALRVGNSLLEQINRLNERQQQGLSEILKALRGEKPVDGVHTHSGGGLFKLARAAFDVVSVVWERDKLKPHVMSFLKALDSQGKTLFSLGKEMAKAFAESVQGPDKNNGKTESSPYASFASKVGMSKVVQRLFNELGRPGAERVRRPTSGPAPRPGGAEQQARPETPPRTRPQANGAPPPPPKAEPRPSSGRPGGAQQQARPETPPRSRPQTNSAPPPPRAEPRPASGRPGGAQQQARPETPPRSRPQTNSAPPPPKAEPRPSSGRPGGAQQQARPETPPRSRPQTNNAPPPRSNNTAGASASAKVGESGPAKPAVKPLYEWLGLSDMTASPAAVKKAYYNASMKHHPDKNPGDAGATARFQDISNAFSILSDPEKRKAYDSGRMNEKGQYV”: the “soluble on expression in E. coli” value is “not soluble”.

Take “MINSKKELRKNMVLKRDSLEPDLKSIKDNMIYNKVINSIQYKSANNIFVFVSYKSEVDTHNIIRTAIADGKKVFVPKVISKEKGMEAAEIRGFFDLEKSAYGILEPKSSNYIEPESIELLLVPGLAFDESGGRIGYGGGFYDRYMSLLDKSAVKVGICYDFQVIDKVIMNINDVPVDKIIVGLEHHHHHH”: the “soluble on expression in E. coli” value is recorded as “not soluble”.

For the sequence “MINVEQVFALDIGTRLVMGLIMEKAPGGYHIIARAQTEHRQRAMYDGQIHDIEEVAQAVQRVKEELEEKIKGKLHYVSVAAAGRALKTAVATAQKSELIPMIWEREDIFALEMEAVQQALREIQAEDEIIPYHCVGYSTIESLLEGQNLSSLSGQRGKEAQVKVIATFLPRTVIDGLTRVISKVGLEMRELTLEPIAAGRAAIPPDMRRMNLALVDVGAGTSDIALTKSGSFFAYGMVPMAGDEITERICQHFLVDFQTGEKIKRSLNTKTKVTFTDFLGMKTTVNKEEVLEQIQPVVLELAQKLADEILRLNQGNPHAIILIGGGSQTPLLAEVLSDLLELPRNRVGIQVRERIQGVSGEKSLKGPDAITPIGIGISTIEGEGLQYFSVHVNDLTVQIFELQLATVSDALLAAGITPRLLVGRPGSALTVELNGDIKVSKGQFSKPAQFFLNGEEVKLDHELKPGDKIQFIPAQDGENAQATFADLVPAIPEKKIKVNGESVVFTAQIFCNGRPVTRDGDVPDGAKITVFQNQTLKDLLHFLNDKQYSLSEIRYKINGEERVIPIHKEFYINQQKVALERMIKDGDDLVILVKEVYIKDLQLKPTPMVFYVNGQEVEYPPQIFRILSRGRVLSDQEKVVDGMELSVEGYDTMPLLSELLPYVNIPQDVPANARLSLKRNNQEAEFTTPLIPGDRIEIHWEQVASALLEHHHHHH”, the “soluble on expression in E. coli” value is reported as “soluble”.

With “MIPGGNTLKETAVVPAATGYDRIAFIYDIIAGIASFDQINKSQLAFLSSIPTQSTCLILGGGTGYFLQKLLEQNATIQVTYVDASQKMIEFAQKRIAEKKPYDAHRVTFVCKQVNVFEFDTYDSIVCNYFLDLFEEADVTMLIKKFKKHLKKDGILYITDFTMPIRTGIIEWSAKAGLKVLYWFFKRTTSLSNNQLPDIESVVLKQDFIKLHSADFFKGILRCSLYR”, the “soluble on expression in E. coli” value is reported as “not soluble”.

For “MIPGSTSGISFSRILSRQTSHQDATQHTDAQQAEIQQAAEDSSPGAEVQKFVQSTDEMSAALAQFRNRRDYEKKSSNLSNSFERVLEDEALPKAKQILKLISVHGGALEDFLRQARSLFPDPSDLVLVLRELLRRKDLEEIVRKKLESLLKHVEEQTDPKTLKAGINCALKARLFGKTLSLKPGLLRASYRQFIQSESHEVEIYSDWIASYGYQRRLVVLDFIEGSLLTDIDANDASCSRLEFGQLLRRLTQLKMLRSADLLFVSTLLSYSFTKAFNAEESSWLLLMLSLLQQPHEVDSLLADIIGLNALLLSHKEHASFLQIFYQVCKAIPSSLFYEEYWQEELLMALRSMTDIAYKHEMAEQRRTIEKLS”, the “soluble on expression in E. coli” value is listed as “not soluble”.

On to “MIPKAFDGVKLLQFSDLHLGHYDSLERFYRIINQINKLQPDIVVFTGDLLHEANRYPHTEEVADALASIRAPLGKFSVYGNHDHGGYGTDIYRRLMERAGFRVLVNEHALVRRGQERIAVAGGDDMMLGQPDWAKMTSGIPASTYTIALVHEPDGALETCRYPIHVQLSGHSHGGQIQLPFIGPLITPPLSERYYEGFYHVGGLVLYVNRGLGTTRVPLRFFAPPELTVFSLIHRLEHHHHHH”, for which the “soluble on expression in E. coli” value is on record as “not soluble”.
